This note sets out measurements from PMC3847722 (Toxins, 2013).

The experiment concerns the target T1, botulinum neurotoxin serotype B (Clostridium botulinum., UniProt P10844).
T1 construct: source: bought: Metabiologics Inc
The experiment can be described thus: BLI; […], dissociation in PBS 1800 s; 1:1 model, […]. Particulars: both partners purified. A general note: BLI is a label-free optical method that tracks binding on a fibre tip over time.

B1: MCS6-27 (antibody, V domains shown)
VH: EVQLEQSGPGLVKPSQSLSLTCTVTGYSITNDYAWNWIRQFPGNKLEWMGYINYSGTTSYNPSLKSRISITRDTSKNQFFLQFNSVTTEDTATYYCARSPLAYWGQGTLVTVSA
VL: DIVLTQTPASLSVSVGETVTITCRASENIYSHLAWYQQKQGKSPQLLVYTATNLADGVPSRFSGRGSGTQYSLKINSLQSEDFGIYFCQHFWGTPWTFGGGTKLEIK
notes: also called mAb MCS6-27; mAb6-27
In general, Kd refers to the equilibrium constant for the complex coming apart. Higher therefore signals weaker binding. For the molecule B1, the affinity, expressed as Kd, was 86 pM.
